In paper PMC12636044, “Membrane binding of a cyanobacterial ESCRT‐III protein crucially involves the helix α1‐3 hairpin conserved in all superfamily members” (Protein Science : A Publication of the Protein Society, 2025):

Columns and labels:
[1] = biological target: the molecule itself; experiment: SEC; Superose 12 10/300, 20 mM HEPES, 100 mM NaCl, pH 7.6, 7°C, 0.5 mL/min; self-association of the purified variant
[2] = biological target: the molecule itself; experiment: cross-linking; BS3 (285 μM), 5.7 μM protein incubated 2 h with DOPG liposomes of increasing concentrations, 25°C, SDS-PAGE; self-association

B1: IM30 wt (inner membrane-associated protein of 30 kDa) (natural protein, Synechocystis, UniProt Q55707 1-267, looked up)
chain: MGLFDRLGRVVRANLNDLVSKAEDPEKVLEQAVIDMQEDLVQLRQAVARTIAEEKRTEQRLNQDTQEAKKWEDRAKLALTNGEENLAREALARKKSLTDTAAAYQTQLAQQRTMSENLRRNLAALEAKISEAKTKKNMLQARAKAAKANAELQQTLGGLGTSSATSAFERMENKVLDMEATSQAAGELAGFGIENQFAQLEASSGVEDELAALKASMAGGALPGTSAATPQLEAAPVDSSVPANNASQDDAVIDQELDDLRRRLNNL
notes: IM30 (Vipp1) of Synechocystis, full-length wild type; calculated MW 31.7 kDa with tag; Forms homo-oligomeric barrels and rods of several MDa; the number of subunits was not measured here; also called wt IM30; Vipp1
- binding result [1]: binds

B2: IM30 α1-3 (domain or fragment, Synechocystis, UniProt Q55707 26-156, looked up)
chain: EKVLEQAVIDMQEDLVQLRQAVARTIAEEKRTEQRLNQDTQEAKKWEDRAKLALTNGEENLAREALARKKSLTDTAAAYQTQLAQQRTMSENLRRNLAALEAKISEAKTKKNMLQARAKAAKANAELQQTL
notes: IM30 (Vipp1) of Synechocystis, helical hairpin α1-3, residues 26-156 (printed for the α1-3 fragment in the simulation); calculated mass about 17.5 kDa; also called IM30 αH1-3; α1-3 helical hairpin; not shown: His10, N-terminal, kept
- binding result [2]: binds
